Where no end group is shown, it is not given here.

From US10287317B2, “Proprotein convertase subtilisin kexin type 9 (PCSK9) allosteric binding ligands to modulate serum low density lipoprotein (LDL) levels” (SRX Cardio, LLC, priority 2013, dated 2019) come the findings set out here.

Test [1] addresses T1, PCSK9-WT protein (Homo sapiens, UniProt Q8NBP7).
T1 construct: V5
The test is described as follows: FACS analysis of cell surface LDLR in HuH7 cells with PCSK9-WT. Format: cell-based. The protocol:
HuH7 cells were incubated for 18 h in the absence (Cnt) or presence of 0.75 μg/ml PCSK9-WT protein alone (WT) or mixed with 100 μM of various SRX peptides. The level of LDLR at the cell surface was measured by FACS using anti human LDLR Ab and a suitable secondary Ab labeled with Alexa 647. Cell surface LDLR is reported relative to Cnt. % inhibition of activity was calculated as [SRX−WT]/[Cnt−WT]×100%.
See, FIG. 1. In that experiment, the LDLR levels of a hepatocyte culture model (HuH7 cells) were measured by fluorescence activated cell sorting (FACS) in accordance with Example III. Cell surface LDLR is reported as a percentage of Basal levels of LDLR, indicated by the Cnt_Amm.Bic, Cnt_Ac.Acid, and Cnt bars in the top graph. See, FIG. 1 (top panel). LDLR levels in the presence of exogenous PCSK9 is indicated as WT_Amm.Bic, WT-Ac.Acid, and WT, and Exogenous PCSK9 in combination with a tested peptide is indicated as SRX##. The measured LDLR levels are reported as % versus basal controls (Cnt) of the respective group. […] This was further shown a percent inhibition (% inhibition was calculated as [SRX−WT]/[Cnt−WT]×100%) where positive modulation (increase) of LDLR level is reported as positive % inhibition, and negative modulation (decrease) of LDLR level is reported as negative % inhibition. See, FIG. 1 (bottom panel).
Benjannet et al., “Effects of the prosegment and pH on the activity of PCSK9: evidence for additional processing events” J Biol Chem. 285(52): 40965-40978 (2010). The cells were then washed 3× with solution A (calcium/magnesium-free Dulbecco's PBS (Invitrogen) containing 0.5% bovine serum albumin (Sigma) and 1 g/liter glucose)). The cells were then incubated for 10 min at room temperature with 1× Versene solution (Invitrogen) followed by the addition of 5 ml of solution A. The cells were then incubated for 40 min in solution A containing a human LDLR mAb-C7 (1:100; Santa Cruz Biotechnology). Following washes, the cells were then incubated for 20 min in solution A containing a secondary antibody (Alexa Fluor 647 donkey anti-mouse antibody; 1:250; Molecular Probes).
Following suspension in PBS containing 0.2% of propidium iodide, the cells were analyzed by FACS for both propidium iodide (dead cells) and LDLR in live cells with Alexa Fluor 647 using the FACS BD LSR (BD Biosciences).

Test [2] addresses D374Y PCSK9 (DY) (Homo sapiens, UniProt Q8NBP7, D374Y). The test is described as follows: Cellular diI-LDL uptake in FL-83B cells with D374Y PCSK9. The test is classed as cell-based, mouse. The conditions noted are these: FL83B, D374Y 0.6 ug/ml, pre-incubated 3 hrs at 37 C, dose dependent manner (FIG. 7). On the procedure: After 16 h, dil-LDL (5 ug/ml) was added to the incubation mixtures. After 4 h, fluorescence was measured (Ex: 520 nm/Em: 575 nm; cutoff: 550 nm). Dil-LDL uptake is calculated as RFU corrected for the number of cells. The PCSK9 and −/+SRX55 [SEQ ID NO: 2] mixtures were pre-incubated for 3 hrs at 37 C prior to addition to the cells.
LDL internalization was measured by uptake of a fluorescently tagged LDL molecule (diI-LDL) in the absence of exogenous PCSK9 (Cnt), in the presence of exogenous PCSK9 (normal PCSK9=WT, D374Y mutant PCSK9=DY), or in the presence of PCSK9 and a tested peptide (indicated as SRX##, or SRX if a single peptide results is shown in a graph). […]
Peptide activity was assessed by culturing cells with: i) no SRX peptide/PCSK9 protein complex (control, Cnt); ii) PCSK9 protein; and iii) SRX peptide/PCSK9 complex. […]
Cells were cultured using one of the combinations of conditions described in the preceding paragraph for 16 hours. After 16 hours, a quantity of diI-LDL (Low density lipoprotein coupled with 1,1′-dioctadecyl-3,3,3′,3′-tetramethylindocarbocyanine perchlorate) needed to bring the media concentration to 5 ug/mL of diI-LDL was added to the culture well and cells continued to be cultured under these new conditions for 4 additional hours. […] Fluorescence of the diI-LDL in the specimens were quantified using excitation at 530 nm and resulting emission at 580 nm. […]

T1 sequence (Q8NBP7 153-692): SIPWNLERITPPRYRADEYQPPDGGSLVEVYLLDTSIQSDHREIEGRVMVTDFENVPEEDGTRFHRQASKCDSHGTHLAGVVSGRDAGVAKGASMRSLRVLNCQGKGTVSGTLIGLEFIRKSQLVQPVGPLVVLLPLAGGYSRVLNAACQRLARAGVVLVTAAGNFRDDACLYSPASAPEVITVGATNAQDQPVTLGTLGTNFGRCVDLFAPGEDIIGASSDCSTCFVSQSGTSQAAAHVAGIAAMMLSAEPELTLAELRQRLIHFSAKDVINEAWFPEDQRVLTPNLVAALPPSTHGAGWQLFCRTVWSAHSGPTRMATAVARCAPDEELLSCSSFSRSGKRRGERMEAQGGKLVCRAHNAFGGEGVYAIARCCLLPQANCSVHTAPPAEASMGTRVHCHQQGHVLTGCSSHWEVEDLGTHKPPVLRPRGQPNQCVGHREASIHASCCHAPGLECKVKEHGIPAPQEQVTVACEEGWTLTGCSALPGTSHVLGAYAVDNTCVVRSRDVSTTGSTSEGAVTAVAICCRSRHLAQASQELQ
Chain of D374Y PCSK9 (DY) (Q8NBP7 153-692 D374Y): as the sequence (Q8NBP7 153-692) above, with D222Y counted along it

Turning to “Val-Tyr-Val-Arg-Phe-Trp (VYVRFW; not fully specified (C-terminus); printed as Val-Tyr-Val-Arg-Phe-Trp) [Compound 1]”, in test [1] (HuH7 cells, FACS, exogenous WT PCSK9 plus peptide (FIG. 1, 100 μM)), the “modulation of LDLR cell surface level” value was “positively modulate (increase)”. Further, in test [1] (WT PCSK9, FACS in HuH7 cells), the “increase of cell surface expression of LDL-R” value is reported as 100%. Also, in test [2], the “LDL internalization (dil-LDL % uptake vs Cnt)” value is recorded as “positively modulated (increased)”.
